US20240115720A1, “ANTIBODY-PYRROLOBENZODIAZEPINE DERIVATIVE CONJUGATE” (MEMORIAL SLOAN KETTERING CANCER CENTER, priority 2021, published 2024)

Columns and labels:
[1] = test system: DLL3-positive human small cell lung cancer cell line NCI-H510A; assay: In vivo antitumor effect, NCI-H510A xenograft (Example 17-3); conditions: BALB/c nude mice, 0.2 mg/kg intravenous, single dose on Day 15, FIG. 21
Description: The antitumor effects of the antibody-drug conjugates were evaluated using animal models derived from immunodeficient mice by the inoculation of DLL3-positive human tumor cell line cells. 4- to 5-week-old BALB/c nude mice (CAnN. Cg-Foxn1 [nu]/CrlCrlj [Foxn1nu/Foxn1nu], Charles River Laboratories Japan inc.) were acclimatized for 3 days or longer under SPF conditions before use in the experiment. The mice were fed with a sterilized solid diet (FR-2, Funabashi Farms Co., Ltd) and given sterilized tap water (which had been prepared by adding a 5 to 15 ppm sodium hypochlorite solution to tap water). The long diameter and short diameter of the inoculated tumor were measured twice a week using electronic digital calipers (CD-15CX, Mitutoyo Corp.), and the volume of the tumor was then calculated according to the following expression.
Tumor volume (mm^3=½×Long diameter (mm)×[Short diameter (mm)]^2
Each antibody-drug conjugate was diluted with ABS buffer (10 mM acetate buffer, 5% sorbitol, pH 5.5) (Nacalai Tesque, Inc.), and the dilution was intravenously administered at a dose shown in each study to the tail of each mouse. ABS buffer was administered in the same manner as above to a control group (vehicle group). Six mice per group were used in the experiment. The group with the over 3000 mm^3 estimated tumor volume were euthanized at that time. […]

[2] = test system: DLL3-positive human small cell lung cancer cell line NCI-H510A; assay: In vivo antitumor effect, NCI-H510A xenograft (Example 22-1); conditions: nude mice, 0.2 mg/kg intravenous, single dose, FIG. 26
Text: (§1) Substantially the same protocol as in Example 17 was used.
(§2) The DLL3-positive human small cell lung cancer cell line NCI-H510A (ATCC) was suspended in Matrigel (Corning Inc.), and the cell suspension was subcutaneously inoculated at a dose of 2.3×10^6 cells to the right flank region of each female nude mouse. After the tumors were established, the mice were randomly grouped (6 mice per group). On the day of grouping, each of the 2 antibody-drug conjugates (H2-C8-A-3-Conjugate, H10-O18-A-3-Conjugate), the reference anti-DLL3 antibody-Conjugate (SC16LD6.5), or anti-LPS antibody-Conjugate was intravenously administered at a dose of 0.2 mg/kg to the tail of each mouse. The abscissa depicts the days after administration, and the ordinate depicts estimated tumor volume. The error range depicts a SE value.

[3] = test system: DLL3-positive human small cell lung cancer cell line NCI-H82; assay: In vivo antitumor effect, NCI-H82 xenograft (Example 22-3); conditions: nude mice, 0.4 mg/kg intravenous, single dose, FIG. 28
Text: as §1
as §2, with “NCI-H82” for “NCI-H510A”, “1×10^6” for “2.3×10^6”, “(SC16LD6.5)” for “(SC16LD6.5),”, “0.4” for “0.2”

B1: SC16LD6.5: anti-DLL3 ADC: antibody hSC16.56 (SC16) conjugated with drug linker SG3249 by maleimide conjugation (conjugate, chains of the INN, looked up)
VH: QVQLVQSGAEVKKPGASVKVSCKASGYTFTNYGMNWVRQAPGQGLEWMGWINTYTGEPTYADDFKGRVTMTTDTSTSTAYMELRSLRSDDTAVYYCARIGDSSPSDYWGQGTLVTVSS
VL: EIVMTQSPATLSVSPGERATLSCKASQSVSNDVVWYQQKPGQAPRLLIYYASNRYTGIPARFSGSGSGTEFTLTISSLQSEDFAVYYCQQDYTSPWTFGQGTKLEIK
modifications: SG3249 PBD drug-linker (tesirine)
notes: anti-DLL3 ADC: antibody hSC16.56 (SC16) conjugated with drug linker SG3249 by maleimide conjugation
B1 was tested, and the “antitumor effect (estimated tumor volume)” value (“antitumor effect” below) [1] was “some tumor growth inhibition without tumor regression effect”, the “antitumor effect” value [2] was “some tumor growth inhibition without tumor regression effect” and the “antitumor effect” value [3] was “some tumor growth inhibition without tumor regression effect”.
